Test results: patent publication US20040132642A1, “Methods of inhibiting metastasis or growth of a tumor cell” (Government of the U.S.A., represented by the Secretary, …, priority 2002, published 2004)

Tests used:
[1] = molecular target: human CXC Chemokine Receptor-4 (CXCR4) (human) (UniProt P61073); experiment: cell-based or functional assay
[2] = molecular target: LMEC-derived CXCL12 (endogenous CXCL12 of human lung microvascular endothelial cells) (human) (UniProt P48061); experiment: cell-based or functional assay
Sequence of LMEC-derived CXCL12 (endogenous CXCL12 of human lung microvascular endothelial cells) (human) (P48061 22-93 limits assumed): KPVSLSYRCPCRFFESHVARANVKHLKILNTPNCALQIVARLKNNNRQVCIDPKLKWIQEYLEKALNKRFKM

Sequence of recombinant CXCL12 (SDF-1) (ligand) (P48061 22-93): as the sequence (P48061 22-93 limits assumed) above
Sequence of human CXC Chemokine Receptor-4 (CXCR4) (human) (P61073 whole entry): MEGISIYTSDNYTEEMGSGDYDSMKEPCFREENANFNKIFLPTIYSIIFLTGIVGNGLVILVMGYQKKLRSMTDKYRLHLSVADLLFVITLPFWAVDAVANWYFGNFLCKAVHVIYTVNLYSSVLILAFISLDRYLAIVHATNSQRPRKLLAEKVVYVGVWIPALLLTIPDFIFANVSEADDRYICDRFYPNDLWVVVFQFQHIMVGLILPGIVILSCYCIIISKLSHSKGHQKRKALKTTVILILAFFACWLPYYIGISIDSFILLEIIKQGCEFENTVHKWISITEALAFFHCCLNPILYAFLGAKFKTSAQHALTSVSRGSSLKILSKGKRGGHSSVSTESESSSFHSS
Sequence of CCL19 (control chemokine) (ligand) (Q99731 22-98): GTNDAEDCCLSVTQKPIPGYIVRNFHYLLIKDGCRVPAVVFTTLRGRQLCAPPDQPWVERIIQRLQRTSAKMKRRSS

CCL19 (control chemokine) (ligand)
adhesion of CXCR4-B16 cells to chemokine-treated DMEC (adherent cells, parallel plate flow chamber) [1]: 6.8 | arrest of CXCR4-B16 cells on plates co-coated with VCAM-1/Ig and CCL19 at 1.5 dynes/cm^2 (Mean adherent cells/field) [1]: 17.2

LMEC-derived CXCL12 (endogenous CXCL12 of human lung microvascular endothelial cells) (from UniProt P48061 22-93) (ligand)
arrest of CXCR4-B16 against pLNCX2-B16 cells on LMEC, no exogenous CXCL12 [1]: 3 times | arrest of CXCR4-B16 cells on TNFα-treated LMEC under flow, no exogenous CXCL12 (Mean adherent cells/field) [1]: 102

Mouse anti-human CXCR4 mAb (clone 44716.111, R&D Systems) (antibody)
arrest on TNF-α-stimulated LMEC of CXCR4-B16 cells pretreated with anti-CXCR4 mAb (10 µg/ml) (Mean adherent cells/field) [1]: 7.5

anti-human CXCL12 mAb (clone 77014.111, R&D Systems) (antibody)
arrest of CXCR4-B16 cells on LMEC pretreated with anti-CXCL12 mAb (100 µg/ml) (Mean adherent cells/field) [2]: 41.2

recombinant CXCL12 (SDF-1) (ligand)
adhesion of CXCR4-B16 cells to CXCL12-treated DMEC (adherent cells, parallel plate flow chamber) [1]: 85.2 | adhesion of CXCR4-B16 cells to CXCL12-treated LMEC (adherent cells) [1]: 321 | arrest of CXCR4-B16 cells on TNFα-treated LMEC under flow, with exogenous CXCL12 (Mean adherent cells/field) [1]: 170 | arrest of CXCR4-B16 cells on plates co-coated with VCAM-1/Ig and CXCL12 at 1.5 dynes/cm^2 (Mean adherent cells/field) [1]: 87.2 | growth of CXCR4-B16 cells in low serum, cell count at 24 h [1]: 19.3 | growth of CXCR4-B16 cells in low serum, cell count at 48 h [1]: 35.3
